The values below come from patent US20260265385A1 (ANAPTYSBIO, published 2026).

Substitutions are numbered along the chain they refer to.

The target of test [1] is T1, cynomolgus IL-2Rβ (CD122), full-length, on cells (cynomolgus, UniProt Q38J85 27-551).
T1 construct: whole, on cells; Co-expressed with full-length cynomolgus IL-2Rγ on CHO-K1 cells; also called cynomolgus IL-2Rβγ; cyno IL-2βγ
T1 sequence (looked up): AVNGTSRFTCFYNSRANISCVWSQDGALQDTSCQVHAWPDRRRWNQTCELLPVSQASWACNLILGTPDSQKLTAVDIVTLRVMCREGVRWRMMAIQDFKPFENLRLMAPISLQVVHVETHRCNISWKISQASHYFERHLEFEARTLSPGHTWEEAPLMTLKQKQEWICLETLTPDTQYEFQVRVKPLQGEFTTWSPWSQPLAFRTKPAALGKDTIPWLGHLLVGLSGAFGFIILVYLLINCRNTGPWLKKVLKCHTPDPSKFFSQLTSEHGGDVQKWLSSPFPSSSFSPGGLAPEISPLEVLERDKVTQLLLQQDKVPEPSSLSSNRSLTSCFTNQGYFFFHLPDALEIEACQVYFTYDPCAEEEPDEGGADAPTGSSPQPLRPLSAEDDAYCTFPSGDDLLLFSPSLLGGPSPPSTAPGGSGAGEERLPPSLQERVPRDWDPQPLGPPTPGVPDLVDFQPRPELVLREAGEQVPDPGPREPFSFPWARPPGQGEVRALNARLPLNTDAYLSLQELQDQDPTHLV
As to the kind of experiment: flow cytometry on CHO-K1 cells expressing cynomolgus IL-2Rβ and IL-2Rγ. On the procedure: (§1) CHO-K1 cells stably expressing full-length human or cynomolgus IL-2Rβ and IL-2Rγ cultured in the log phase of growth were harvested with Accutase solution, resuspended in FACS buffer, and plated at 100,000 cells/well in a 96-well plate. The concentrations of antibodies indicated in FIGS. 1 and 2 starting at 100 nM and diluted 1:3 were incubated with the cells for 45 minutes on a plate shaker at 4° C. After washing, the cells were incubated with goat-anti-human kappa DyL650 secondary antibody for 20 minutes on a plate shaker at 4° C. Cells were washed again and analyzed on a FACSArray flow cytometer. Data were analyzed using Novoexpress and GraphPad Prism software. Table 3 lists anti-CD122 chimeric antibody binding characteristics: affinity to human and cyno CD122 protein (KD, measured by SPR assay), ability to block IL-2 (SPR assay), and binding EC50 to cell-expressed human and cyno CD122/CD132 (cell-based receptor binding assay).

The target in test [2] is T2, recombinant human IL-2Rβ (extracellular domain, Ala1-Thr215) (human, UniProt P14784 27-240).
T2 construct: extracellular domain; Analyte in SPR; Ala1-Thr215 is counted on the mature protein; also called human LL-2Rβ; Human IL-2RB
T2 sequence (looked up): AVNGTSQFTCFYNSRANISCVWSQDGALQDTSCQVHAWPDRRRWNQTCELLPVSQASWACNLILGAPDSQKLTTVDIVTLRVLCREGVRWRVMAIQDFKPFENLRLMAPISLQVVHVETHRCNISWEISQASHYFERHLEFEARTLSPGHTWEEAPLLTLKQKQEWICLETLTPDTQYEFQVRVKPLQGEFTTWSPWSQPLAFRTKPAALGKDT
Nature of the test: SPR, antibody captured on Protein A chip. The procedure, abridged:
(§2)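 Antibodies captured on a Protein A chip (0.5 μg/mL, 60 s), then exposed to IL-2Rβ extracellular domain (Ala1-Thr215) at about 0.4–11 nM; 300 s association, 1200 s dissociation. On- and off-rates and KD from a global 1:1 binding fit.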
On the technique in general: SPR reads the build-up and loss of mass on a sensor chip optically.

Test [3] has as its target T3, recombinant cynomolgus IL-2Rβ (extracellular domain, Ala1-Thr215) (cynomolgus, UniProt Q38J85 27-240).
T3 construct: extracellular domain; Analyte in SPR; also called cynomolgus LL-2Rβ; Cyno IL-2RB
T3 sequence (looked up): T2 sequence (looked up) with Q7R, A66T, T74A, L83M, V92M, E127K, L158M
As to the kind of experiment: SPR, antibody captured on Protein A chip. The procedure, abridged: as §2

Test [4] addresses T2, recombinant human IL-2Rβ (extracellular …). As to the kind of experiment: SPR.
Test [5] concerns the target T3, recombinant cynomolgus IL-2Rβ …. Nature of the test: SPR.
Test [6] addresses T4, human IL-2Rβ (CD122), full-length, on cells (human, UniProt P14784 27-551).
T4 construct: whole, on cells; also called human IL-2Rβγ; human IL-2βγ
T4 sequence (looked up): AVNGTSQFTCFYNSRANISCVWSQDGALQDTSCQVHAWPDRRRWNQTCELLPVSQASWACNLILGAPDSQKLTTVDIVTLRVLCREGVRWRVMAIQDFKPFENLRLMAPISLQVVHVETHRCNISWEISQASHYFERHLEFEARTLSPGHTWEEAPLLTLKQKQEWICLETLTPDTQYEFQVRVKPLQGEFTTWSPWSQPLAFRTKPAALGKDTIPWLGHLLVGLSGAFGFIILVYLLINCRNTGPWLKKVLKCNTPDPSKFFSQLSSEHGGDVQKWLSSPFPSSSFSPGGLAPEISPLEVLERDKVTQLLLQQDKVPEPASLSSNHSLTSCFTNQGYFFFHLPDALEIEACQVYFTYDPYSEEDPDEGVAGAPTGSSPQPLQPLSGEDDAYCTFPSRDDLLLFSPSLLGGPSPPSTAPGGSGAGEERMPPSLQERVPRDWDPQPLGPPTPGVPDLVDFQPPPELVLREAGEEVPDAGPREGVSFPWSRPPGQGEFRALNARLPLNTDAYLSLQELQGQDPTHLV
Nature of the test: flow cytometry on CHO-K1 cells expressing human IL-2Rβ and IL-2Rγ. The procedure:
as §1
On the technique in general: A flow cytometer gives signals particle by particle.

B1: APE12705 (antibody, V domains shown)
VH: DVQLQQSGAELARPGASVKLSCTVSGFNFKDSLMHWVTQGPERGLRWIGWIDSENGETEYAPGFQDKATITADTSSSTVYLHLSSLTSEDTAIYYCARGGPWFLSYWGPGTTLTVSS
VL: DIVLTQTPATLSVTPGDSVSLSCRASQIISNNLHWYQQKSHESPRLLIIYGLQSISGIPYRFSGRRSGTDFTLNINSVEIEDFGMYFCQQSNNWPWTFGGGTKLDIRR
notes: M10-1275 series; human kappa detected by the secondary antibody; also called APE 12705.02; M10-1275
What is called EC50 is the concentration that produces a half-maximal response. One may read the Kd as the free concentration of one partner at which half of the binding sites on the other are occupied at equilibrium, for simple one-to-one binding. B1: the EC50 was 0.0876 nM in test [1] and 0.174 nM in test [6]. The Kd in test [2] is 0.08 nM; in test [3] it was 0.02 nM; in test [4] it was roughly 0.08 nM; in test [5] it was roughly 0.02 nM.

B2: APE12383 (antibody, V domains shown)
VH: QVQLQQSGAELMKPGASVKISCKSTGYTFSRYWIEWVKQRPGHGLEWIGEILPGSGSINHNEKFQGKATFTADTSSNTVYMQLSSLTSEDSAVYFCTRHYGSFDYWGQGTTLTVSS
VL: EIVMTQSPKFMSTSVGDRVSVTCKASQNVGTDVAWYQQKPGQSPKALIYSASYRYNGVPDRFTGSGSGTDFTLTISNVQSEDLAEYFCHQYSSYPFTFGSGTKLEIKR
notes: M6-p1625 series; human kappa detected by the secondary antibody; also called APE 12383.03; M6-p1625
Turning to B2, the EC50 in test [1] was 0.147 nM; in test [6], 0.142 nM. Besides, the Kd was 0.34 nM in test [2], 0.26 nM in test [3], roughly 0.34 nM in test [4] and roughly 0.26 nM in test [5].
